Positions count from the first letter of the chain named.
B1: YB9-102 (antibody, V domains shown)
VH: EVQLLESGGGLVQPGGSLRLSCTASGFTFRYYAMTWVRQAPGKGLEWVSVIIGSGGDTYYADSVKGRFTISRDNSKNTLYLQMDSLRAEDTAVYYCATGELELGTCYFDYWGQGTLVTVSS
VL: DIQMTQSPSSVSASVGDRVTITCRASQGISSWLAWYQQKPGEAPKLLISAASSLQSGVPSRFSGSGSETDFTLTISSVQPEDFATYYCQQANSFPQAFGQGTKVEIK
B2: YB9-112 (antibody, V domains shown)
VH: EVRLVESGGGLIQPGGSLRLSCAASGLIVSSNYMTWVRQAPGKGLEWVSVIYSGGSTFYADSVKGRFTISRDNSKNTLFLQMSSLRAEDTAIYYCARDLDYYGMDVWGQGTTVTVSS
VL: DIQLTQSPSFLSASVGDRVTITCRASQGVASYLAWYQQKPGKAPKLLIYAASTLQSGVPSRFSGSGSGTEFTLTISSLQPEDFATYYCQHLNSYPPITFGQGTRLEIK
B3: YB12-187 (antibody, V domains shown)
VH: EVQLVESGGGLVKPGGSLRLSCAASGFIFSTYSMNWVRQAPGKGLEWVSSISSFSTYIYYADSVKGRFTISRDNAKNSLYLQMNSLRAEDTAVYYCASGQMYSGSYPSGDYFDYWGQGTLVTVSS
VL: LSVLTQPPSVSGAPGQRVTISCTGSSSNIGADYDVHWYQQLPGTAPKLLIYGNTNRPSGVPDRFSGSKSGTSASLAITGLQAEDEAHYYCQSYDTSLSGVVFGGGTKLTVL
B4: YB12-195 (antibody, V domains shown)
VH: B2 VH with R3Q, L27F, T35N, F79Y, S83N, I92V, D100Q, Y101R, Y102D
VL: SYVLTQPPSVSVAPGKTARITCGGNNIGSKNVHWYQQKPGQAPVLVIYYDSDRPSGIPERFSGSNSGNTATLTVSRVEAGDEADYYCQLWDSSSDHVVFGGGTKLTVL
B5: YB12-202 (antibody, V domains shown)
VH: EVQLVQSGAEVKKPGESLKISCKGSGYSFISYWIVWVRQMPGKGLEWMGIIYPGDSDTRYSPSFHGQVTISADKSFSTAYLQWSSLKASDTAMYYCATTPHLYGGADYWGQGTLVTVSS
VL: not shown
B6: YB12-203 (antibody, V domains shown)
VH: QIQLQQSGPGLVEPSQTLSLTCAISGDSVSSISAAWNWIRQSPSRGLEWLGRTYYRSKWYNDYAVSVKSRITINPDTSKNQFSLHLNSVTPEDTAVYYCARDHLRWDIVATSLEAFDIWGQGTMVTVSS
VL: DIVMTQSPDSLAVSLGERATINCKSSQSVLFSSNNKNSLAWYQQKPGQPPKLLIYWASTRESGVPDRFSGSGSGTDFTLTISSLQAEDVAVYYCQQYHSSLLYTFGQGTKLEIK
B7: YB13-209 (antibody, V domains shown)
VH: EVQLVESGGGLVKPGGSLKLSCAASGFSFVNAWMSWVRQAPGKGLEWVGRIKDKIDGGTTDYAAPVKGRFSISRDDSKNMLYLQMTSLKTEDTAVYYCTTGYNWHYGIEYWGQGTLVTVSS
VL: DIQMTQSPSSLSASVGDRVTVTCRASQSINSYLNWYQQKPGKAPKLLIYAASSLQSGVPSRFSGSGSGTDFTLTISSLQAEDFATYYCQQSYSTPDTFGQGTKLEIK
B8: YB13-216 (antibody, V domains shown)
VH: QVQLVESGGGVVQPGSSLRISCAASGFTFSSYGMHWVRQGPGKGLEWVAVIWDDGSGKHYAVSVKGRFTISRDNSKNTLYLQMNSLRVEDTAVYYCARDEGTTVTFFDYWGQGTLVTVSS
VL: DIQMTQSPSSLSASVGDRITITCRASQSIRTYLNWYQQKPGKAPKLLIYTSSSLQSGVPSRFSGSGSGTDFTLTISSLQPEDFATYFCQQSYSTPPWTFGQGTKVEIK
B9: YB13-217 (antibody, V domains shown)
V domain 1: QVQLVESGGGVVQPGKSLRLSCTASGFTFSSHSMHWVRQAPGKGLDWVAVISFDGTKNYFADSLKGRFSVSRDNSRNTLYLQMNSLRVEDTAVYYCAREEGGSRMYHYYYGMDVWGQGTTVTVSS
V domain 2: QSVLTQPPSASGTPGQRVTISCSGSSSNIGTNTVNWYQQLPGTAPKLLIYTNNQRPSGVPDRFSGSKSGTSASLAIGGLQSEDEADYYCAAWDDSVSSYVFGTGTQVTAL
B10: YB13-221 (antibody, V domains shown)
VH: EVQLVESGGGLVQPGGSLRLSCAASGFIVSSRYMSWVRQAPGKGLEWVSVIYSDGRSYYADSVKGRFIISRDNFKNALYLQMNSLRAEDTAVYYCARDSPYRTGWFLGQSDAFDIWGQGTMVTVSS
VL: DIQMTQSPSTLSASVGDRVTITCRASQSISSWLAWYQQKPGKAPNLLIYKASSLESGVPSRFSASGSGTEFTLTISSLQPDDFATYYCQQYNSYPPSFGQGTKVEIK
B11: YB12-266 (antibody, V domains shown)
VH: EVQLVESGGGLIQPGGSLRLSCAASGLTVSSNYMSWVRQAPGKGLEWVSLIYSGGTTSYADSVKGRFTISRDNSKNTLYLQMNSLRVEDTAVYYCARDLVVYGMDVWGQGTTVTVSS
VL: AIQLTQSPSSLSASVGDRVTITCRASQGISSYLAWYQQKPGKAPKLLIYAASTLQSGVPSRFSGSGSGTDFTLTISSLQPEDFATYYCQLLNSYPLTFGGGTKVEIK
B12: YB12-267 (antibody, V domains shown)
VH: KVQLVESGGGLIQPGGSLRLSCAASGLTVSSNYMNWVRQAPGKGLEWVSLIFSGGSTYYADSVKGRFTISRDYSKNTLYLQMNSLRAEDTAVYYCARDLMEVGGMDVWGQGTTVTVSS
VL: QSVLTQPPSASGTPGQRVTISCSGSSSYIGSIYWYQQLPGAAPKLLVFSDHKRPSGVPDRFSGSKSGTSASLAISGLQSEDEAGYYCATWDDSLNGYVFGTGTKVTVL
B13: YB12-269 (antibody, V domains shown)
VH: EVQLVESGGALVRPGGSLRVSCAASGITVNFNYMTWVRQGPGKGLEWVASIYPGGSTFYADSVKGRFTISRDNSKNTLYLQMTSVRDEDTALYYCARDEGPGMDVWGQGTTVTVSS
VL: QSVLTQPPSVSGAPGQRVTISCTGYSSNIEAGSDVHWYQQPPGTAPKLLIYNNNNRPSGVPDRFSGSKSGTSASLAITGLQPGDEGDYYCQSYDSRLSGYVFGTGTKVTVL
B14: YB13-275 (antibody, V domains shown)
V domain 1: QITLKESGPRLVKPTQTLTLTCTFSGFSLATAGMSVGWIRQPPGKALEWLALIYWDDDDRYSPSLKSRLTITKDTSRNQVVLTMTNMDPVDTATYYCIHPRFYSDPSGYYFIWGQGTMVTVSS
V domain 2: SYELTQPPSVSVSPGQTARITCSGDALAKQYAYWYQQKPGQAPVQVMYKDGERPSGIPERFSGSKSGTTVTLTISAVQAEDEADYFCQSADNSGFYVFGTGTQVTVL
B15: YB13-291 (antibody, V domains shown)
V domain 1: QITLKESGPTLVKPTQTLTLTCTFSGFSLNTAGVAVGWIRQPPGKAREWLALIYWDDDQRYSPSLESRLTITKDTSKNLVVLTMTNMDPVDTATYYCAHPRYFSDNSAYYWIWGQGTMVTVSS
V domain 2: SYDLTQPPSVSVSPGQTATISCSGDALPKQYVYWYQQKPGQAPVLVIYKDSERPSGIPERFSGSNSGTTVTLTISGVQAEDEAEYYCQSADSSGFYVFGSGTQVTVL

The binders below were run against SARS-CoV-2 Delta (B.1.617.2) S1 (SARS-CoV-2 Delta (B.1.617.2), strain).
B1: binds.
B2: binds.
B3: binds.
B4: binds.
B5: binds.
B6: binds.
B7: binds.
B8: binds.
B9: binds.
B10: binds.
B11: binds.
B12: binds.
B13: binds.
B14: binds.
B15: binds.

Each binder was assayed against SARS-CoV-2 Lambda (C.37) RBD (SARS-CoV-2 Lambda (C.37), strain).
B1: binds.
B2: binds.
B3: binds.
B4: binds.
B5: binds.
B6: binds.
B7: binds.
B8: binds.
B9: binds.
B10: binds.
B11: binds.
B12: binds.
B13: binds.
B14: binds.
B15: binds.

Each binder was assayed against SARS-CoV-2 wildtype S1 (SARS-CoV-2 wildtype (Wuhan), UniProt P0DTC2).
B1: binds.
B2: binds.
B3: binds.
B4: binds.
B5: binds.
B6: binds.
B7: binds.
B8: binds.
B9: binds.
B10: binds.
B11: binds.
B12: binds.
B13: binds.
B14: binds.
B15: binds.

The binders below were run against SARS-CoV-2 Kappa (B.1.617.1) spike ECD (SARS-CoV-2 Kappa (B.1.617.1), strain).
B1: binds.
B2: binds.
B3: binds.
B4: binds.
B5: binds.
B6: binds.
B7: binds.
B8: binds.
B9: binds.
B10: binds.
B11: binds.
B12: binds.
B13: binds.
B14: binds.
B15: binds.

The binders below were run against SARS-CoV-2 Omicron BA.1 (B.1.1.529) RBD (SARS-CoV-2 Omicron BA.1 (B.1.1.529), strain).
B1: binds.
B3: binds.
B5: binds.
B7: binds.
B8: binds.
B9: binds.
B12: binds.
B13: binds.

These binders were tested against SARS-CoV-2 Beta (B.1.351) S1 (SARS-CoV-2 Beta (B.1.351), strain).
B1: binds.
B2: binds.
B3: binds.
B5: binds.
B6: binds.
B7: binds.
B8: binds.
B9: binds.
B10: binds.
B11: binds.
B12: binds.
B13: binds.
B14: binds.
B15: binds.

These binders were tested against SARS-CoV-2 Gamma (P.1) S1 (SARS-CoV-2 Gamma (P.1), strain).
B1: binds.
B2: binds.
B3: binds.
B4: binds.
B5: binds.
B7: binds.
B8: binds.
B9: binds.
B10: binds.
B11: binds.
B12: binds.
B13: binds.
B14: binds.
B15: binds.

From article PMC9951844 (Nature Communications, 2023)
